Data: the supplement of paper PMC11811203

B1: THAP1; numbered along this chain (parent)
chain: MVQSCSAYGCKNRYDKDKPVSFHKFPLTRPSLCKEWEAAVRRKNFKPTKYSSICSEHFTPDCFKRECNNKLLKENAVPTIFLCTEPHDKKEDLLEPQEQLPPPPLPPPVSQVDAAIGLLMPPLQTPVNLSVFCDHNYTVEDTMHQRKRIHQLEQQVEKLRKKLKTAQQRCRRQERQLEKLKEVVHFQKEKDDVSERGYVILPNDYFEIVEVPA

Variants of: B1
Assay: THAP1 transcriptional activity (GFP+/GFP- enrichment relative to wild-type constructs) (ratio to WT); higher = more THAP1 activity (PSMB5 reporter activation)
Conditions: with PSMB5 promoter-GFP reporter
Procedure, shortened: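 A site-saturation library of human THAP1 (residues 2–213, each changed to all 20 amino acids) was transduced by lentivirus at MOI ~0.3, in duplicate, into THAP1-knockout HEK-293T cells carrying mClover3 knocked in at endogenous PSMB5. After five days, BFP+ cells were sorted into GFP-dim and GFP-bright bins, and variants were counted by Illumina sequencing of genomic DNA amplicons. Activity is the replicate-mean bright/dim read fold change divided by the mean of wild-type synonymous constructs.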

Compared with MVQSCSAYGCKNRYDKDKPVSFHKFPLTRPSLCKEWEAAVRRKNFKPTKYSSICSEHFTPDCFKRECNNKLLKENAVPTIFLCTEPHDKKEDLLEPQEQLPPPELPPPVSQVDAAIGLLMPPLQTPVNLSVFCDHNYTVEDTMHQRKRIHQLEQQVEKLRKKLKTAQQRCRRQERQLEKLKEVVHFQKEKDDVSERGYVILPNDYFEIVEVPA [P104E], MVQSCSAYGCKNRYDKDKPVSFHKFPLTRPSLCKEWEAAVRRKNFKPTKYSSICSEHFTPDCFKRECNNKLLKENAVPTIFLCTEPHDKKEDLLEPQEQLPPPFLPPPVSQVDAAIGLLMPPLQTPVNLSVFCDHNYTVEDTMHQRKRIHQLEQQVEKLRKKLKTAQQRCRRQERQLEKLKEVVHFQKEKDDVSERGYVILPNDYFEIVEVPA [P104F] is lower in THAP1 transcriptional activity: 1.85 for the first, 0.865 for the second.

Going from MVQSCSAYGCKNRYDKDKPVSFHKFPLTRPSLCKEWEAAVRRKNFKPTKYSSICSEHFTPDCFKRECNNKLLKENAVPTIFLCTEPHDKKEDLLEPQEQLPPPGLPPPVSQVDAAIGLLMPPLQTPVNLSVFCDHNYTVEDTMHQRKRIHQLEQQVEKLRKKLKTAQQRCRRQERQLEKLKEVVHFQKEKDDVSERGYVILPNDYFEIVEVPA [P104G] to MVQSCSAYGCKNRYDKDKPVSFHKFPLTRPSLCKEWEAAVRRKNFKPTKYSSICSEHFTPDCFKRECNNKLLKENAVPTIFLCTEPHDKKEDLLEPQEQLPPPILPPPVSQVDAAIGLLMPPLQTPVNLSVFCDHNYTVEDTMHQRKRIHQLEQQVEKLRKKLKTAQQRCRRQERQLEKLKEVVHFQKEKDDVSERGYVILPNDYFEIVEVPA [P104I], the THAP1 transcriptional activity falls from 1.2 to 0.946.

First: MVQSCSAYGCKNRYDKDKPVSFHKFPLTRPSLCKEWEAAVRRKNFKPTKYSSICSEHFTPDCFKRECNNKLLKENAVPTIFLCTEPHDKKEDLLEPQEQLPPPKLPPPVSQVDAAIGLLMPPLQTPVNLSVFCDHNYTVEDTMHQRKRIHQLEQQVEKLRKKLKTAQQRCRRQERQLEKLKEVVHFQKEKDDVSERGYVILPNDYFEIVEVPA [P104K]
Second: MVQSCSAYGCKNRYDKDKPVSFHKFPLTRPSLCKEWEAAVRRKNFKPTKYSSICSEHFTPDCFKRECNNKLLKENAVPTIFLCTEPHDKKEDLLEPQEQLPPPMLPPPVSQVDAAIGLLMPPLQTPVNLSVFCDHNYTVEDTMHQRKRIHQLEQQVEKLRKKLKTAQQRCRRQERQLEKLKEVVHFQKEKDDVSERGYVILPNDYFEIVEVPA [P104M]
The THAP1 transcriptional activity of the first is higher: 1.14 for the first, 0.907 for the second.

Compared with MVQSCSAYGCKNRYDKDKPVSFHKFPLTRPSLCKEWEAAVRRKNFKPTKYSSICSEHFTPDCFKRECNNKLLKENAVPTIFLCTEPHDKKEDLLEPQEQLPPPQLPPPVSQVDAAIGLLMPPLQTPVNLSVFCDHNYTVEDTMHQRKRIHQLEQQVEKLRKKLKTAQQRCRRQERQLEKLKEVVHFQKEKDDVSERGYVILPNDYFEIVEVPA [P104Q], MVQSCSAYGCKNRYDKDKPVSFHKFPLTRPSLCKEWEAAVRRKNFKPTKYSSICSEHFTPDCFKRECNNKLLKENAVPTIFLCTEPHDKKEDLLEPQEQLPPPRLPPPVSQVDAAIGLLMPPLQTPVNLSVFCDHNYTVEDTMHQRKRIHQLEQQVEKLRKKLKTAQQRCRRQERQLEKLKEVVHFQKEKDDVSERGYVILPNDYFEIVEVPA [P104R] is lower in THAP1 transcriptional activity: 1.88 for the first, 0.888 for the second.

Compared with MVQSCSAYGCKNRYDKDKPVSFHKFPLTRPSLCKEWEAAVRRKNFKPTKYSSICSEHFTPDCFKRECNNKLLKENAVPTIFLCTEPHDKKEDLLEPQEQLPPPSLPPPVSQVDAAIGLLMPPLQTPVNLSVFCDHNYTVEDTMHQRKRIHQLEQQVEKLRKKLKTAQQRCRRQERQLEKLKEVVHFQKEKDDVSERGYVILPNDYFEIVEVPA [P104S], MVQSCSAYGCKNRYDKDKPVSFHKFPLTRPSLCKEWEAAVRRKNFKPTKYSSICSEHFTPDCFKRECNNKLLKENAVPTIFLCTEPHDKKEDLLEPQEQLPPPTLPPPVSQVDAAIGLLMPPLQTPVNLSVFCDHNYTVEDTMHQRKRIHQLEQQVEKLRKKLKTAQQRCRRQERQLEKLKEVVHFQKEKDDVSERGYVILPNDYFEIVEVPA [P104T] is lower in THAP1 transcriptional activity: 2.12 for the first, 1.39 for the second.

First: MVQSCSAYGCKNRYDKDKPVSFHKFPLTRPSLCKEWEAAVRRKNFKPTKYSSICSEHFTPDCFKRECNNKLLKENAVPTIFLCTEPHDKKEDLLEPQEQLPPPVLPPPVSQVDAAIGLLMPPLQTPVNLSVFCDHNYTVEDTMHQRKRIHQLEQQVEKLRKKLKTAQQRCRRQERQLEKLKEVVHFQKEKDDVSERGYVILPNDYFEIVEVPA [P104V]
Second: MVQSCSAYGCKNRYDKDKPVSFHKFPLTRPSLCKEWEAAVRRKNFKPTKYSSICSEHFTPDCFKRECNNKLLKENAVPTIFLCTEPHDKKEDLLEPQEQLPPPWLPPPVSQVDAAIGLLMPPLQTPVNLSVFCDHNYTVEDTMHQRKRIHQLEQQVEKLRKKLKTAQQRCRRQERQLEKLKEVVHFQKEKDDVSERGYVILPNDYFEIVEVPA [P104W]
The THAP1 transcriptional activity of the first is higher: 2.16 for the first, 0.527 for the second.

Going from MVQSCSAYGCKNRYDKDKPVSFHKFPLTRPSLCKEWEAAVRRKNFKPTKYSSICSEHFTPDCFKRECNNKLLKENAVPTIFLCTEPHDKKEDLLEPQEQLPPPYLPPPVSQVDAAIGLLMPPLQTPVNLSVFCDHNYTVEDTMHQRKRIHQLEQQVEKLRKKLKTAQQRCRRQERQLEKLKEVVHFQKEKDDVSERGYVILPNDYFEIVEVPA [P104Y] to MVQSCSAYGCKNRYDKDKPVSFHKFPLTRPSLCKEWEAAVRRKNFKPTKYSSICSEHFTPDCFKRECNNKLLKENAVPTIFLCTEPHDKKEDLLEPQEQLPPPPAPPPVSQVDAAIGLLMPPLQTPVNLSVFCDHNYTVEDTMHQRKRIHQLEQQVEKLRKKLKTAQQRCRRQERQLEKLKEVVHFQKEKDDVSERGYVILPNDYFEIVEVPA [L105A], the THAP1 transcriptional activity rises from 0.704 to 1.61.

Compared with MVQSCSAYGCKNRYDKDKPVSFHKFPLTRPSLCKEWEAAVRRKNFKPTKYSSICSEHFTPDCFKRECNNKLLKENAVPTIFLCTEPHDKKEDLLEPQEQLPPPPCPPPVSQVDAAIGLLMPPLQTPVNLSVFCDHNYTVEDTMHQRKRIHQLEQQVEKLRKKLKTAQQRCRRQERQLEKLKEVVHFQKEKDDVSERGYVILPNDYFEIVEVPA [L105C], MVQSCSAYGCKNRYDKDKPVSFHKFPLTRPSLCKEWEAAVRRKNFKPTKYSSICSEHFTPDCFKRECNNKLLKENAVPTIFLCTEPHDKKEDLLEPQEQLPPPPEPPPVSQVDAAIGLLMPPLQTPVNLSVFCDHNYTVEDTMHQRKRIHQLEQQVEKLRKKLKTAQQRCRRQERQLEKLKEVVHFQKEKDDVSERGYVILPNDYFEIVEVPA [L105E] is lower in THAP1 transcriptional activity: 1.32 for the first, 1.27 for the second.

First: MVQSCSAYGCKNRYDKDKPVSFHKFPLTRPSLCKEWEAAVRRKNFKPTKYSSICSEHFTPDCFKRECNNKLLKENAVPTIFLCTEPHDKKEDLLEPQEQLPPPPFPPPVSQVDAAIGLLMPPLQTPVNLSVFCDHNYTVEDTMHQRKRIHQLEQQVEKLRKKLKTAQQRCRRQERQLEKLKEVVHFQKEKDDVSERGYVILPNDYFEIVEVPA [L105F]
Second: MVQSCSAYGCKNRYDKDKPVSFHKFPLTRPSLCKEWEAAVRRKNFKPTKYSSICSEHFTPDCFKRECNNKLLKENAVPTIFLCTEPHDKKEDLLEPQEQLPPPPGPPPVSQVDAAIGLLMPPLQTPVNLSVFCDHNYTVEDTMHQRKRIHQLEQQVEKLRKKLKTAQQRCRRQERQLEKLKEVVHFQKEKDDVSERGYVILPNDYFEIVEVPA [L105G]
The THAP1 transcriptional activity of the first is lower: 0.955 for the first, 1.09 for the second.

Compared with MVQSCSAYGCKNRYDKDKPVSFHKFPLTRPSLCKEWEAAVRRKNFKPTKYSSICSEHFTPDCFKRECNNKLLKENAVPTIFLCTEPHDKKEDLLEPQEQLPPPPHPPPVSQVDAAIGLLMPPLQTPVNLSVFCDHNYTVEDTMHQRKRIHQLEQQVEKLRKKLKTAQQRCRRQERQLEKLKEVVHFQKEKDDVSERGYVILPNDYFEIVEVPA [L105H], MVQSCSAYGCKNRYDKDKPVSFHKFPLTRPSLCKEWEAAVRRKNFKPTKYSSICSEHFTPDCFKRECNNKLLKENAVPTIFLCTEPHDKKEDLLEPQEQLPPPPIPPPVSQVDAAIGLLMPPLQTPVNLSVFCDHNYTVEDTMHQRKRIHQLEQQVEKLRKKLKTAQQRCRRQERQLEKLKEVVHFQKEKDDVSERGYVILPNDYFEIVEVPA [L105I] is higher in THAP1 transcriptional activity: 1.54 for the first, 2.11 for the second.

Compared with MVQSCSAYGCKNRYDKDKPVSFHKFPLTRPSLCKEWEAAVRRKNFKPTKYSSICSEHFTPDCFKRECNNKLLKENAVPTIFLCTEPHDKKEDLLEPQEQLPPPPKPPPVSQVDAAIGLLMPPLQTPVNLSVFCDHNYTVEDTMHQRKRIHQLEQQVEKLRKKLKTAQQRCRRQERQLEKLKEVVHFQKEKDDVSERGYVILPNDYFEIVEVPA [L105K], MVQSCSAYGCKNRYDKDKPVSFHKFPLTRPSLCKEWEAAVRRKNFKPTKYSSICSEHFTPDCFKRECNNKLLKENAVPTIFLCTEPHDKKEDLLEPQEQLPPPPMPPPVSQVDAAIGLLMPPLQTPVNLSVFCDHNYTVEDTMHQRKRIHQLEQQVEKLRKKLKTAQQRCRRQERQLEKLKEVVHFQKEKDDVSERGYVILPNDYFEIVEVPA [L105M] is higher in THAP1 transcriptional activity: 1.34 for the first, 1.81 for the second.

Compared with MVQSCSAYGCKNRYDKDKPVSFHKFPLTRPSLCKEWEAAVRRKNFKPTKYSSICSEHFTPDCFKRECNNKLLKENAVPTIFLCTEPHDKKEDLLEPQEQLPPPPNPPPVSQVDAAIGLLMPPLQTPVNLSVFCDHNYTVEDTMHQRKRIHQLEQQVEKLRKKLKTAQQRCRRQERQLEKLKEVVHFQKEKDDVSERGYVILPNDYFEIVEVPA [L105N], MVQSCSAYGCKNRYDKDKPVSFHKFPLTRPSLCKEWEAAVRRKNFKPTKYSSICSEHFTPDCFKRECNNKLLKENAVPTIFLCTEPHDKKEDLLEPQEQLPPPPSPPPVSQVDAAIGLLMPPLQTPVNLSVFCDHNYTVEDTMHQRKRIHQLEQQVEKLRKKLKTAQQRCRRQERQLEKLKEVVHFQKEKDDVSERGYVILPNDYFEIVEVPA [L105S] is higher in THAP1 transcriptional activity: 1.92 for the first, 2.43 for the second.

First: MVQSCSAYGCKNRYDKDKPVSFHKFPLTRPSLCKEWEAAVRRKNFKPTKYSSICSEHFTPDCFKRECNNKLLKENAVPTIFLCTEPHDKKEDLLEPQEQLPPPPTPPPVSQVDAAIGLLMPPLQTPVNLSVFCDHNYTVEDTMHQRKRIHQLEQQVEKLRKKLKTAQQRCRRQERQLEKLKEVVHFQKEKDDVSERGYVILPNDYFEIVEVPA [L105T]
Second: MVQSCSAYGCKNRYDKDKPVSFHKFPLTRPSLCKEWEAAVRRKNFKPTKYSSICSEHFTPDCFKRECNNKLLKENAVPTIFLCTEPHDKKEDLLEPQEQLPPPPWPPPVSQVDAAIGLLMPPLQTPVNLSVFCDHNYTVEDTMHQRKRIHQLEQQVEKLRKKLKTAQQRCRRQERQLEKLKEVVHFQKEKDDVSERGYVILPNDYFEIVEVPA [L105W]
The THAP1 transcriptional activity of the first is higher: 1.56 for the first, 0.491 for the second.

First: MVQSCSAYGCKNRYDKDKPVSFHKFPLTRPSLCKEWEAAVRRKNFKPTKYSSICSEHFTPDCFKRECNNKLLKENAVPTIFLCTEPHDKKEDLLEPQEQLPPPPYPPPVSQVDAAIGLLMPPLQTPVNLSVFCDHNYTVEDTMHQRKRIHQLEQQVEKLRKKLKTAQQRCRRQERQLEKLKEVVHFQKEKDDVSERGYVILPNDYFEIVEVPA [L105Y]
Second: MVQSCSAYGCKNRYDKDKPVSFHKFPLTRPSLCKEWEAAVRRKNFKPTKYSSICSEHFTPDCFKRECNNKLLKENAVPTIFLCTEPHDKKEDLLEPQEQLPPPPLCPPVSQVDAAIGLLMPPLQTPVNLSVFCDHNYTVEDTMHQRKRIHQLEQQVEKLRKKLKTAQQRCRRQERQLEKLKEVVHFQKEKDDVSERGYVILPNDYFEIVEVPA [P106C]
The THAP1 transcriptional activity of the first is lower: 0.831 for the first, 1.25 for the second.
